Numbering of substitutions follows the chain as printed. One block for each binder: values may come before it.
Target: T1, CD3 epsilon homodimer protein (UniProt P07766 23-126)
T1 construct: also called CD3 (CD3 epsilon)
Test: SPR Biacore T200, CD3e homodimer on chip, vs unaltered GLS3000 antibody
Protocol: An appropriate amount of CD3 epsilon homodimer protein was immobilized onto Sensor chip CM4 (GE Healthcare Japan Corp.) by the amine coupling method. Then, the antibody having an appropriate concentration was injected thereto as an analyte and allowed to interact with the CD3 epsilon homodimer protein on the sensor chip. Then, the sensor chip was regenerated by the injection of 10 mmol/L glycine-HCl (pH 1.5). The assay was conducted at 25 degrees C., and HBS-EP+(GE Healthcare Japan Corp.) was used as a running buffer. […] Each parameter was calculated using Biacore T200 Evaluation Software (GE Healthcare Japan Corp.).

T1 sequence (P07766 23-126): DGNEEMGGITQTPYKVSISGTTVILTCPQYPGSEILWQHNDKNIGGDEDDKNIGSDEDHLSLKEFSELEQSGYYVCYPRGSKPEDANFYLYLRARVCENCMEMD

B1: GLS3000 S27eD (antibody, name in Kabat numbering, V domains shown)
VH: QVQLVESGGGVVQPGRSLRLSCAASGFTFSNAWMHWVRQAPGKGLEWVAQIKAKSNNYATYYAESVKGRFTISRDDSKNSLYLQMNSLKTEDTAVYYCRYVHYGAYYGVDAWGQGTTVTVSS
VL: DIVMTQSPLSLPVTPGEPASISCRSSQSLVHDNRNTYLHWYQQKPGQAPRLLIYKVSNRFSGVPDRFSGSGSGTDFTLKISRVEAEDVGVYYCGQGTQVPYTFGQGTKLEIK
notes: one-arm IgG as m2
ratio of amounts bound (Z=Y/X): 0.69

B2: GLS3000 S27eG (antibody, name in Kabat numbering, V domains shown)
VH: B1 VH
VL: B1 VL with D32G
notes: one-arm IgG as m2
ratio of amounts bound (Z=Y/X): 1.04

B3: GLS3000 S27eL (antibody, name in Kabat numbering, V domains shown)
VH: B1 VH
VL: B1 VL with D32L
notes: one-arm IgG as m2
ratio of amounts bound (Z=Y/X): 1.17

B4: GLS3000 S56A (antibody, name in Kabat numbering, V domains shown)
VH: B1 VH
VL: B1 VL with D32S, S61A
notes: one-arm IgG as m2
ratio of amounts bound (Z=Y/X): 1.16

B6: GLS3000 S27eT (antibody, name in Kabat numbering, V domains shown)
VH: B1 VH
VL: B1 VL with D32T
notes: one-arm IgG as m2
ratio of amounts bound (Z=Y/X): 0.97

B7: GLS3000 S52Q (antibody, name in Kabat numbering, V domains shown)
VH: B1 VH
VL: B1 VL with D32S, S57Q
notes: one-arm IgG as m2
ratio of amounts bound (Z=Y/X): 1.05

B8: GLS3000 S56L (antibody, name in Kabat numbering, V domains shown)
VH: B1 VH
VL: B1 VL with D32S, S61L
notes: one-arm IgG as m2
ratio of amounts bound (Z=Y/X): 1.02

B11: GLS3000 S56H (antibody, name in Kabat numbering, V domains shown)
VH: B1 VH
VL: B1 VL with D32S, S61H
notes: one-arm IgG as m2
ratio of amounts bound (Z=Y/X): 1.05

B12: GLS3000 S52A (antibody, name in Kabat numbering, V domains shown)
VH: B1 VH
VL: B1 VL with D32S, S57A
notes: one-arm IgG as m2
ratio of amounts bound (Z=Y/X): 0.93

B13: GLS3000 S56F (antibody, name in Kabat numbering, V domains shown)
VH: B1 VH
VL: B1 VL with D32S, S61F
notes: one-arm IgG as m2
ratio of amounts bound (Z=Y/X): 1.32

B14: GLS3000 S27eI (antibody, name in Kabat numbering, V domains shown)
VH: B1 VH
VL: B1 VL with D32I
notes: one-arm IgG as m2
ratio of amounts bound (Z=Y/X): 1.07

B15: GLS3000 S27eE (antibody, name in Kabat numbering, V domains shown)
VH: B1 VH
VL: B1 VL with D32E
notes: one-arm IgG as m2
ratio of amounts bound (Z=Y/X): 0.76

B16: GLS3000 S27eK (antibody, name in Kabat numbering, V domains shown)
VH: B1 VH
VL: B1 VL with D32K
notes: one-arm IgG as m2
ratio of amounts bound (Z=Y/X): 1.59

B18: GLS3000 S52P (antibody, name in Kabat numbering, V domains shown)
VH: B1 VH
VL: B1 VL with D32S, S57P
notes: one-arm IgG as m2
ratio of amounts bound (Z=Y/X): 0.33

B19: GLS3000 S56I (antibody, name in Kabat numbering, V domains shown)
VH: B1 VH
VL: B1 VL with D32S, S61I
notes: one-arm IgG as m2
ratio of amounts bound (Z=Y/X): 0.99

B21: GLS3000 S27eP (antibody, name in Kabat numbering, V domains shown)
VH: B1 VH
VL: B1 VL with D32P
notes: one-arm IgG as m2
ratio of amounts bound (Z=Y/X): 1.26

B22: GLS3000 S27eF (antibody, name in Kabat numbering, V domains shown)
VH: B1 VH
VL: B1 VL with D32F
notes: one-arm IgG as m2
ratio of amounts bound (Z=Y/X): 1.32

B28: GLS3000 S52Y (antibody, name in Kabat numbering, V domains shown)
VH: B1 VH
VL: B1 VL with D32S, S57Y
notes: one-arm IgG as m2
ratio of amounts bound (Z=Y/X): 1.12

B29: GLS3000 S56G (antibody, name in Kabat numbering, V domains shown)
VH: B1 VH
VL: B1 VL with D32S, S61G
notes: one-arm IgG as m2
ratio of amounts bound (Z=Y/X): 0.92

B31: GLS3000 S27eW (antibody, name in Kabat numbering, V domains shown)
VH: B1 VH
VL: B1 VL with D32W
notes: one-arm IgG as m2
ratio of amounts bound (Z=Y/X): 1.55

B34: GLS3000 S27eV (antibody, name in Kabat numbering, V domains shown)
VH: B1 VH
VL: B1 VL with D32V
notes: one-arm IgG as m2
ratio of amounts bound (Z=Y/X): 1.08

B35: GLS3000 S27eY (antibody, name in Kabat numbering, V domains shown)
VH: B1 VH
VL: B1 VL with D32Y
notes: one-arm IgG as m2
ratio of amounts bound (Z=Y/X): 1.2

B36: GLS3000 S52D (antibody, name in Kabat numbering, V domains shown)
VH: B1 VH
VL: B1 VL with D32S, S57D
notes: one-arm IgG as m2
ratio of amounts bound (Z=Y/X): 0.63

B39: GLS3000 S56D (antibody, name in Kabat numbering, V domains shown)
VH: B1 VH
VL: B1 VL with D32S, S61D
notes: one-arm IgG as m2
ratio of amounts bound (Z=Y/X): 0.77

B40: GLS3000 S27eN (antibody, name in Kabat numbering, V domains shown)
VH: B1 VH
VL: B1 VL with D32N
notes: one-arm IgG as m2
ratio of amounts bound (Z=Y/X): 1.16

B41: GLS3000 S27eH (antibody, name in Kabat numbering, V domains shown)
VH: B1 VH
VL: B1 VL with D32H
notes: one-arm IgG as m2
ratio of amounts bound (Z=Y/X): 1.23

B42: GLS3000 S56K (antibody, name in Kabat numbering, V domains shown)
VH: B1 VH
VL: B1 VL with D32S, S61K
notes: one-arm IgG as m2
ratio of amounts bound (Z=Y/X): 1.46

B43: GLS3000 S27eQ (antibody, name in Kabat numbering, V domains shown)
VH: B1 VH
VL: B1 VL with D32Q
notes: one-arm IgG as m2
ratio of amounts bound (Z=Y/X): 1.1

B44: GLS3000 S56E (antibody, name in Kabat numbering, V domains shown)
VH: B1 VH
VL: B1 VL with D32S, S61E
notes: one-arm IgG as m2
ratio of amounts bound (Z=Y/X): 0.71

B45: GLS3000 S27eM (antibody, name in Kabat numbering, V domains shown)
VH: B1 VH
VL: B1 VL with D32M
notes: one-arm IgG as m2
ratio of amounts bound (Z=Y/X): 1.23

B46: GLS3000 S27eR (antibody, name in Kabat numbering, V domains shown)
VH: B1 VH
VL: B1 VL with D32R
notes: one-arm IgG as m2
ratio of amounts bound (Z=Y/X): 1.58

Continued, values first:

ratio of amounts bound (Z=Y/X): 1.05
B5: GLS3000 S56M (antibody, name in Kabat numbering, V domains shown)
VH: B1 VH
VL: B1 VL with D32S, S61M
notes: one-arm IgG as m2

ratio of amounts bound (Z=Y/X): 1.46
B9: GLS3000 S56Y (antibody, name in Kabat numbering, V domains shown)
VH: B1 VH
VL: B1 VL with D32S, S61Y
notes: one-arm IgG as m2

ratio of amounts bound (Z=Y/X): 1.38
B10: GLS3000 S56W (antibody, name in Kabat numbering, V domains shown)
VH: B1 VH
VL: B1 VL with D32S, S61W
notes: one-arm IgG as m2

ratio of amounts bound (Z=Y/X): 1.36
B17: GLS3000 S56R (antibody, name in Kabat numbering, V domains shown)
VH: B1 VH
VL: B1 VL with D32S, S61R
notes: one-arm IgG as m2

ratio of amounts bound (Z=Y/X): 0.31
B20: GLS3000 T31P (antibody, name in Kabat numbering, V domains shown)
VH: B1 VH
VL: B1 VL with D32S, T36P
notes: one-arm IgG as m2

ratio of amounts bound (Z=Y/X): 0.32
B23: GLS3000 T31N (antibody, name in Kabat numbering, V domains shown)
VH: B1 VH
VL: B1 VL with D32S, T36N
notes: one-arm IgG as m2

ratio of amounts bound (Z=Y/X): 0.97
B24: GLS3000 T31I (antibody, name in Kabat numbering, V domains shown)
VH: B1 VH
VL: B1 VL with D32S, T36I
notes: one-arm IgG as m2

ratio of amounts bound (Z=Y/X): 0.95
B25: GLS3000 S56P (antibody, name in Kabat numbering, V domains shown)
VH: B1 VH
VL: B1 VL with D32S, S61P
notes: one-arm IgG as m2

ratio of amounts bound (Z=Y/X): 0.92
B26: GLS3000 S56N (antibody, name in Kabat numbering, V domains shown)
VH: B1 VH
VL: B1 VL with D32S, S61N
notes: one-arm IgG as m2

ratio of amounts bound (Z=Y/X): 1.04
B27: GLS3000 T31K (antibody, name in Kabat numbering, V domains shown)
VH: B1 VH
VL: B1 VL with D32S, T36K
notes: one-arm IgG as m2

ratio of amounts bound (Z=Y/X): 1.04
B30: GLS3000 S56Q (antibody, name in Kabat numbering, V domains shown)
VH: B1 VH
VL: B1 VL with D32S, S61Q
notes: one-arm IgG as m2

ratio of amounts bound (Z=Y/X): 0.23
B32: GLS3000 T31D (antibody, name in Kabat numbering, V domains shown)
VH: B1 VH
VL: B1 VL with D32S, T36D
notes: one-arm IgG as m2

ratio of amounts bound (Z=Y/X): 0.97
B33: GLS3000 S56T (antibody, name in Kabat numbering, V domains shown)
VH: B1 VH
VL: B1 VL with D32S, S61T
notes: one-arm IgG as m2

ratio of amounts bound (Z=Y/X): 0.49
B37: GLS3000 T31E (antibody, name in Kabat numbering, V domains shown)
VH: B1 VH
VL: B1 VL with D32S, T36E
notes: one-arm IgG as m2

ratio of amounts bound (Z=Y/X): 0.95
B38: GLS3000 S56V (antibody, name in Kabat numbering, V domains shown)
VH: B1 VH
VL: B1 VL with D32S, S61V
notes: one-arm IgG as m2

Source: patent publication US20210388087A1 (Chugai, published 2021)
